Measured values published in US12618845B2, “Methods and compositions for protein sequencing” (Quantum-Si Incorporated, priority 2018, dated 2026).
Where two headings read alike, the source gives them in different places.

Tested on: peptide substrates
Assay type: biochemical

Measured: HPLC Assay Conv

B1: VPr: Vibrio proteolyticus aminopeptidase (protein)
chain: MPPITQQATVTAWLPQVDASQITGTISSLESFTNRFYTTTSGAQASDWIASEWQALSASLPNASVKQVSHSGYNQKSVVMTITGSEAPDEWIVIGGHLDSTIGSHTNEQSVAPGADDDASGIAAVTEVIRVLSENNFQPKRSIAFMAYAAEEVGLRGSQDLANQYKSEGKNVVSALQLDMTNYKGSAQDVVFITDYTDSNFTQYLTQLMDEYLPSLTYGFDTCGYACSDHASWHNAGYPAAMPFESKFNDYNPRIHTTQDTLANSDPTGSHAKKFTQLGLAYAIEMGSATGDTPTPGNQ
15%: substrate NNPFQQ (SEQ ID NO: 130), 1 mM Peptide, 1 μM enzyme, 10 mM Mg(OAc)2, 50 mM MOPS pH 8, 60 mM KOAc, RT/0.5 hr
100%: substrate AAMAAM{LYSN3}NH2 (SEQ ID NO: 74), 1 mM peptide, 2 mM enzyme, 2.5 mM ZnCl2, 25 mM Tris pH 8.0, 30° C./1 hr | substrate AAPAAP{LYSN3}NH2 (SEQ ID NO: 98), 1 mM peptide, 2 mM enzyme, 2.5 mM ZnCl2, 25 mM Tris pH 8.0, 30° C./1 hr | substrate AAPFQQ (SEQ ID NO: 118), 1 mM Peptide, 1 μM enzyme, 10 mM Mg(OAc)2, 50 mM MOPS pH 8, 60 mM KOAc, RT/0.5 hr | substrate FFPFFP{LYSN3}NH2 (SEQ ID NO: 94), 1 mM peptide, 2 mM enzyme, 2.5 mM ZnCl2, 25 mM Tris pH 8.0, 30° C./1 hr | substrate FFPFQQ (SEQ ID NO: 124), 1 mM Peptide, 1 μM enzyme, 10 mM Mg(OAc)2, 50 mM MOPS pH 8, 60 mM KOAc, RT/0.5 hr | substrate IIPFQQ (SEQ ID NO: 136), 1 mM Peptide, 1 μM enzyme, 10 mM Mg(OAc)2, 50 mM MOPS pH 8, 60 mM KOAc, RT/0.5 hr | substrate KKMKKM{LYSN3}NH2 (SEQ ID NO: 89), 1 mM peptide, 2 mM enzyme, 2.5 mM ZnCl2, 25 mM Tris pH 8.0, 30° C./1 hr | substrate KKPKKP{LYSN3}NH2 (SEQ ID NO: 100), 1 mM peptide, 2 mM enzyme, 2.5 mM ZnCl2, 25 mM Tris pH 8.0, 30° C./1 hr | substrate LLPFQQ (SEQ ID NO: 138), 1 mM Peptide, 1 μM enzyme, 10 mM Mg(OAc)2, 50 mM MOPS pH 8, 60 mM KOAc, RT/0.5 hr | substrate MMPFQQ (SEQ ID NO: 148), 1 mM Peptide, 1 μM enzyme, 10 mM Mg(OAc)2, 50 mM MOPS pH 8, 60 mM KOAc, RT/0.5 hr | substrate QP5-Atto649N ([…]{LYSN3}NH2) (SEQ ID NO: 106), 37 μM Peptide, 8 μM Enzyme, 2.5 mM ZnCl2, 25 mM Tris pH 8.0, 37° C./0.5 hr | substrate RRPRRP{LYSN3}NH2 (SEQ ID NO: 96), 1 mM peptide, 2 mM enzyme, 2.5 mM ZnCl2, 25 mM Tris pH 8.0, 30° C./1 hr | substrate TTPFQQ (SEQ ID NO: 142), 1 mM Peptide, 1 μM enzyme, 10 mM Mg(OAc)2, 50 mM MOPS pH 8, 60 mM KOAc, RT/0.5 hr | substrate VVPFQQ (SEQ ID NO: 134), 1 mM Peptide, 1 μM enzyme, 10 mM Mg(OAc)2, 50 mM MOPS pH 8, 60 mM KOAc, RT/0.5 hr | substrate […]1 (SEQ ID NO: 11), 600 μM Peptide, 8 μM enzyme, 10 mM Mg(OAc)2, 50 mM MOPS pH 8, 60 mM KOAc, RT/0.5 hr | substrate […]1 (SEQ ID NO: 11), 600 μM Peptide, 8 μM enzyme, 10 mM Mg(OAc)2, 50 mM MOPS pH 8, RT/0.5 hr | substrate […]1 (SEQ ID NO: 13), 300 μM Peptide, 8 μM enzyme, 10 mM Mg(OAc)2, 50 mM MOPS pH 8, 60 mM KOAc, 37° C./2 hr | substrate […]1 (SEQ ID NO: 13), 300 μM Peptide, 8 μM enzyme, 10 mM Mg(OAc)2, 50 mM MOPS pH 8, 60 mM KOAc, RT/2 hr | substrate […]1 (SEQ ID NO: 13), 300 μM Peptide, 8 μM enzyme, 10 mM Mg(OAc)2, 50 mM MOPS pH 8, 0.2% Tween20, RT/0.5 hr | substrate […]1 (SEQ ID NO: 13), 300 μM Peptide, 8 μM enzyme, 10 mM Mg(OAc)2, 50 mM MOPS pH 8, RT/0.5 hr | substrate […]1 (SEQ ID NO: 13), 300 μM Peptide, 8 μM enzyme, RB4, RT/0.5 hr | substrate […]1 (SEQ ID NO: 13), 600 μM Peptide, 8 μM enzyme, 10 mM Mg(OAc)2, 50 mM MOPS pH 8, RT/0.5 hr | substrate […]{LYSN3}NH2 (SEQ ID NO: 107), 200 μM Peptide, 4 μM enzyme, 10 mM MgCl2, 50 mM MOPS pH 8.0, 37° C./0.5 hr | substrate […]{LYSN3}NH2 (SEQ ID NO: 107), 200 μM Peptide, 4 μM enzyme, 10 mM MgCl2, 50 mM MOPS pH 8.0, 37° C./1 hr | substrate […]{LYSN3}NH2 (SEQ ID NO: 107), 200 μM Peptide, 8 μM enzyme, 10 mM MgCl2, 50 mM MOPS pH 5.0, RT/0.5 hr | substrate […]{LYSN3}NH2 (SEQ ID NO: 107), 200 μM Peptide, 8 μM enzyme, 10 mM MgCl2, 50 mM MOPS pH 5.0, RT/1 hr | substrate […]{LYSN3}NH2 (SEQ ID NO: 107), 300 μM Peptide, 4 μM enzyme, 10 mM MgCl2, 50 mM MOPS pH 8.0, 37° C./0.5 hr | substrate […]{LYSN3}NH2 (SEQ ID NO: 107), 400 μM Peptide, 8 μM enzyme, 50 mM HEPES pH 8.0, 300 mM NaCl, 1 mM DTT, 5% Glycerol, 32 mM PCA, 37° C./1 hr | substrate […]{LYSN3}NH2 (SEQ ID NO: 107), 600 μM Peptide, 0.8 μM enzyme, 10 mM Mg(OAc)2, 50 mM MOPS pH 5.5, RT/0.5 hr | substrate […]{LYSN3}NH2 (SEQ ID NO: 107), 600 μM Peptide, 0.8 μM enzyme, 10 mM Mg(OAc)2, 50 mM MOPS pH 6.5, RT/0.5 hr | substrate […]{LYSN3}NH2 (SEQ ID NO: 107), 600 μM Peptide, 0.8 μM enzyme, 10 mM Mg(OAc)2, 50 mM MOPS pH 7.5, RT/0.5 hr | substrate […]{LYSN3}NH2 (SEQ ID NO: 107), 600 μM Peptide, 0.8 μM enzyme, 10 mM Mg(OAc)2, 50 mM MOPS pH 8.5, RT/0.5 hr | substrate […]{LYSN3}NH2 (SEQ ID NO: 107), 1200 μM Peptide, 0.008 μM enzyme, 10 mM Mg(OAc)2, 50 mM MOPS pH 7.5, RT/0.5 hr | substrate […]{LYSN3}NH2 (SEQ ID NO: 107), 1200 μM Peptide, 0.008 μM enzyme, 10 mM Mg(OAc)2, 50 mM MOPS pH 8.5, RT/0.5 hr | substrate […]{LYSN3}NH2 (SEQ ID NO: 107), 1200 μM Peptide, 0.08 μM enzyme, 10 mM Mg(OAc)2, 50 mM MOPS pH 6.5, RT/0.5 hr | substrate […]{LYSN3}NH2 (SEQ ID NO: 107), 1200 μM Peptide, 0.08 μM enzyme, 10 mM Mg(OAc)2, 50 mM MOPS pH 7.5, RT/0.5 hr | substrate […]{LYSN3}NH2 (SEQ ID NO: 109), 300 μM Peptide, 4 μM enzyme, 10 mM MgCl2, 50 mM MOPS pH 8.0, 37° C./0.5 hr | substrate […]{LYSN3}NH2 (SEQ ID NO: X), 1200 μM Peptide, 0.08 μM enzyme, 10 mM Mg(OAc)2, 50 mM MOPS pH 8.5, RT/0.5 hr
8%: substrate GGPFQQ (SEQ ID NO: 152), 1 mM Peptide, 1 μM enzyme, 10 mM Mg(OAc)2, 50 mM MOPS pH 8, 60 mM KOAc, RT/0.5 hr
48%: substrate SSPFQQ (SEQ ID NO: 140), 1 mM Peptide, 1 μM enzyme, 10 mM Mg(OAc)2, 50 mM MOPS pH 8, 60 mM KOAc, RT/0.5 hr
2.70%: substrate […]{LYSN3}NH2 (SEQ ID NO: 107), 1200 μM Peptide, 800 pM enzyme, 10 mM Mg(OAc)2, 50 mM MOPS pH 7.5, RT/0.5 hr
56%: substrate QP15 […]{LYSN3}NH2 (SEQ ID NO: 107), 1200 μM Peptide, 0.008 μM enzyme, 10 mM Mg(OAc)2, 50 mM MOPS pH 6.5, RT/0.5 hr | substrate YYPFQQ (SEQ ID NO: 122), 1 mM Peptide, 1 μM enzyme, 10 mM Mg(OAc)2, 50 mM MOPS pH 8, 60 mM KOAc, RT/0.5 hr
12%: substrate HHPFQQ (SEQ ID NO: 154), 1 mM Peptide, 1 μM enzyme, 10 mM Mg(OAc)2, 50 mM MOPS pH 8, 60 mM KOAc, RT/0.5 hr
>90%: substrate YYMYYM{LYSN3}NH2 (SEQ ID NO: 103), 1 mM peptide, 2 mM enzyme, 2.5 mM ZnCl2, 25 mM Tris pH 8.0, 30° C./1 hr
6.80%: substrate […]{LYSN3}NH2 (SEQ ID NO: 107), 1200 μM Peptide, 800 pM enzyme, 10 mM Mg(OAc)2, 50 mM MOPS pH 8.5, RT/0.5 hr
32%: substrate KKPFQQ (SEQ ID NO: 120), 1 mM Peptide, 1 μM enzyme, 10 mM Mg(OAc)2, 50 mM MOPS pH 8, 60 mM KOAc, RT/0.5 hr
82%: substrate WWPFQQ (SEQ ID NO: 146), 1 mM Peptide, 1 μM enzyme, 10 mM Mg(OAc)2, 50 mM MOPS pH 8, 60 mM KOAc, RT/0.5 hr
30%: substrate […]1 (SEQ ID NO: 13), 300 μM Peptide, 8 μM enzyme, 50/50 MOPS Mg buffer/RB1, RT/0.5 hr
79%: substrate RRPFQQ (SEQ ID NO: 116), 1 mM Peptide, 1 μM enzyme, 10 mM Mg(OAc)2, 50 mM MOPS pH 8, 60 mM KOAc, RT/0.5 hr
5%: substrate […]1 (SEQ ID NO: 11), 600 μM Peptide, 0.08 μM enzyme, 10 mM 5Mg(OAc)2, 0 mM MOPS pH 8, 60 mM KOAc, RT/0.5 hr | substrate […]1 (SEQ ID NO: 13), 300 μM Peptide, 8 μM enzyme, RB2 + Mg, RT/0.5 hr
50%: substrate YYPYYP{LYSN3}NH2 (SEQ ID NO: 92), 1 mM peptide, 2 mM enzyme, 2.5 mM ZnCl2, 25 mM Tris pH 8.0, 30° C./1 hr | substrate […]1 (SEQ ID NO: 11), 600 μM Peptide, 0.8 μM enzyme, 10 mM Mg(OAc)2, 50 mM MOPS pH 8, 60 mM KOAc, RT/0.5 hr | substrate […]{LYSN3}NH2 (SEQ ID NO: 107), 1200 μM Peptide, 0.08 μM enzyme, 10 mM Mg(OAc)2, 50 mM MOPS pH 5.5, RT/0.5 hr
66%: substrate QQPFQQ (SEQ ID NO: 132), 1 mM Peptide, 1 μM enzyme, 10 mM Mg(OAc)2, 50 mM MOPS pH 8, 60 mM KOAc, RT/0.5 hr
1.40%: substrate QP15 […]{LYSN3}NH2 (SEQ ID NO: 107), 1200 μM Peptide, 0.008 μM enzyme, 10 mM Mg(OAc)2, 50 mM MOPS pH 5.5, RT/0.5 hr
0%: substrate DDPFQQ (SEQ ID NO: 126), 1 mM Peptide, 1 uM enzyme, 10 mM Mg(OAc)2, 50 mM MOPS pH 8, 60 mM KOAc, RT/0.5 hr | substrate EEPFQQ (SEQ ID NO: 128), 1 mM Peptide, 1 uM enzyme, 10 mM Mg(OAc)2, 50 mM MOPS pH 8, 60 mM KOAc, RT/0.5 hr | substrate PPPFQQ (SEQ ID NO: 150), 1 mM Peptide, 1 μM enzyme, 10 mM Mg(OAc)2, 50 mM MOPS pH 8, 60 mM KOAc, RT/0.5 hr
70%: substrate CCPFQQ (SEQ ID NO: 144), 1 mM Peptide, 1 μM enzyme, 10 mM Mg(OAc)2, 50 mM MOPS pH 8, 60 mM KOAc, RT/0.5 hr | substrate […]1 (SEQ ID NO: 13), 300 μM Peptide, 8 μM enzyme, 10 mM Mg(OAc)2, 50 mM MOPS pH 8, 60 mM KOAc, RT/0.5 hr
